Results taken from US11419948B2, “Functionalized microgels with fibrin binding elements” (Georgia Tech Research Corporation, priority 2013, dated 2022).

Columns and labels:
[1] = tested on: platelet poor plasma (PPP); assay: Dynamic in vitro clotting in endothelialized microfluidic device; assay type: biochemical, human; details: platelet-poor plasma under flow
Description: To characterize the effect of microgels on clotting in vitro, a endothelialized microfluidics device that accurately recapitulates the cellular, physical, and hemodynamic environment of microcirculation, was used as previously described, Jackson, et al., Journal of Thrombosis and Haemostasis: JTH 7 Suppl 1:17-20 (2009). For these experiments, clotting of platelet poor plasma (PPP) was analyzed in the absence or presence of fibrin-binding microgels of varying degrees of crosslinking in real time using confocal microscopy. As a control, clotting of platelet rich plasma (PRP) or PPP in the presence of non-fibrin binding microgels were also investigated. Microgels or buffer were added to PPP immediately prior to injection into the microfluidics device. To visualize clotting, PPP was spiked with Alexa Fluor-488 labeled fibrinogen. Endothelial cells were stained with Cell Mask Deep Red (Invitrogen) and microgels were labeled with Alexa Fluor 546. For experiments utilizing PRP, platelets were stained with Cell Mask Red (Invitrogen). Samples were flowed at 1.1 μL/min and imaged continuously for 20 min. Clotting overtime was characterized through imaging processing with Image J (NIH). Each microfluidic device is comprised of three regions of different flow rates, comprising four endothelialized channels.

[2] = molecular target: T1, fibrin D-Dimers (Homo sapiens, UniProt P02671+P02675+P02679, DEL433-453); assay: ELISA against adsorbed fibrin D-Dimers; assay type: binding; details: D-Dimer dilutions
T1 construct: ELISAs against plates coated with adsorbed fibrin D-Dimers or E Regions
T1 sequence (P02671 130-216 limits assumed): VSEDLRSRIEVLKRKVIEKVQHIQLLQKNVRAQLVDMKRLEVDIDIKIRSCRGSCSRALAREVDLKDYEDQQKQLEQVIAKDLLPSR
T1 sequence (P02675 164-491 limits assumed): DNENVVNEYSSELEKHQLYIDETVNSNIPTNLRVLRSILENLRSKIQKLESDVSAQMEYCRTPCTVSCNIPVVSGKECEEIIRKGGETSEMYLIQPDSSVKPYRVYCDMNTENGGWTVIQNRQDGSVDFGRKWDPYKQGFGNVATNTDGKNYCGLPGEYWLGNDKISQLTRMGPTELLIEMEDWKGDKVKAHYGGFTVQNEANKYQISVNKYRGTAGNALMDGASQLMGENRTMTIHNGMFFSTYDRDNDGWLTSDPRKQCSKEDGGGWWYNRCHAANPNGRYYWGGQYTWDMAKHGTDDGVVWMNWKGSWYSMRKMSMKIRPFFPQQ
T1 sequence (P02679 114-432 limits assumed): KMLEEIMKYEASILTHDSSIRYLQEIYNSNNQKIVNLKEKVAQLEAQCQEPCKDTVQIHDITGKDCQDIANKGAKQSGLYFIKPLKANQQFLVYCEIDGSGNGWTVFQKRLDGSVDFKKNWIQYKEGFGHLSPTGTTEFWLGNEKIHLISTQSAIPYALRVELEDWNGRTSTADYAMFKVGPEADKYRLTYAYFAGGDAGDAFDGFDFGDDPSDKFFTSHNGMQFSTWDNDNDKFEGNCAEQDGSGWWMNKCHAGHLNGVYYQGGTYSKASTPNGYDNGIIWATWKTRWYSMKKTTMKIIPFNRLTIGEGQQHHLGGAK
Description: This was determined through ELISAs against plates coated with adsorbed fibrin D-Dimers or E Regions.
ELISA set-up and analysis was identical to that performed for the plasma-binding ELISA, the main exception being a substitution of human plasma dilutions for D-Dimer or E Region dilutions adsorbed to the 96-well plates. Both D-Dimer and […]

Row | Molecule | fibrin clot formation in response to thrombin [1] | binding to D-Dimer [2]
1 | PLPs: ultra-low crosslinked pNIPAm-AAc microgels conjugated to fibrin-specific sdFv H6 (conjugate) VH: QVQLLESGGGLVQPGGSLRLSCAASGDRFTHNDMGWVRQAPGKGLEWVSTIPTTDGSTYYADSVKGRFTISRDNSKSTLYLQMNSLRAEDTAVYYCATGYMWKAPAYVKYWGQGTLVTVSSAAAEQKLISEEDLNSAAHYTDIG | successfully rescued fibrin clot formation | –
2 | H6: fibrin-specific human sdFv clone from phage biopanning, SEQ ID NO: 1 (protein) VHH: QVQLLESGGGLVQPGGSLRLSCAASGDRFTHNDMGWVRQAPGKGLEWVSTIPTTDGSTYYADSVKGRFTISRDNSKSTLYLQMNSLRAEDTAVYYCATGYMWKAPAYVKYWGQGTLVTVSSAAAEQKLISEEDLNSAAHYTDIG | – | negligible binding
